From patent US20250066499A1 (SUNSHINE GUOJIAN PHARMACEUTICAL SHANGHAI, published 2025)

T1: CD73-ND-E143A (human, UniProt P21589 27-317)
T1 construct: Alanine mutant of CD73-ND
T1 sequence: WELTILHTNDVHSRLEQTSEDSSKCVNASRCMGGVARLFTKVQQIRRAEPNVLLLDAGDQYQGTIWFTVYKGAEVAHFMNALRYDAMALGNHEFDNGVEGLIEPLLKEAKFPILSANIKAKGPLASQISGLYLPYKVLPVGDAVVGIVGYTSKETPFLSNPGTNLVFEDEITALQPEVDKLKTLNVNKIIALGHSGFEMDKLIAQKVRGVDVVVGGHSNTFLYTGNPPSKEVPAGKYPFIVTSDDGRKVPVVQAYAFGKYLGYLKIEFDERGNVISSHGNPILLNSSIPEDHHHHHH

T2: CD73-ND-K180A (human, UniProt P21589 27-317)
T2 construct: Alanine mutant of CD73-ND
T2 sequence: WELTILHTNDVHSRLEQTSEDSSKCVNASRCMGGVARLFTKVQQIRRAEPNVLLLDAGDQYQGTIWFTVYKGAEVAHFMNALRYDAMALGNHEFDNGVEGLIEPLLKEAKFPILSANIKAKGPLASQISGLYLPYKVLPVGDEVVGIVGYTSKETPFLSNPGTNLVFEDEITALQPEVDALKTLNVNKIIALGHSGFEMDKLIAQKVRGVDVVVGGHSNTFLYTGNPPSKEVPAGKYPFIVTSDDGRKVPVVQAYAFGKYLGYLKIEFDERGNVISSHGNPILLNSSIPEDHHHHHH

T3: CD73-ND-L181A (human, UniProt P21589 27-317)
T3 construct: Alanine mutant of CD73-ND
T3 sequence: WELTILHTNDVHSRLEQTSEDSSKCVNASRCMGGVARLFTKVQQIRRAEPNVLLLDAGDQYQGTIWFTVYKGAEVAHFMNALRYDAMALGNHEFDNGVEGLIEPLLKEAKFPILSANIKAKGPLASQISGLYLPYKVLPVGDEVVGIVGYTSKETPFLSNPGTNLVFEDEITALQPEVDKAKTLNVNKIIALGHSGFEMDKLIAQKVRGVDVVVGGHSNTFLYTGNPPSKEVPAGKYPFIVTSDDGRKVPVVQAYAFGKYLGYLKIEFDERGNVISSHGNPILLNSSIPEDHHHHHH

T4: CD73-ND-K182A (human, UniProt P21589 27-317)
T4 construct: Alanine mutant of CD73-ND
T4 sequence: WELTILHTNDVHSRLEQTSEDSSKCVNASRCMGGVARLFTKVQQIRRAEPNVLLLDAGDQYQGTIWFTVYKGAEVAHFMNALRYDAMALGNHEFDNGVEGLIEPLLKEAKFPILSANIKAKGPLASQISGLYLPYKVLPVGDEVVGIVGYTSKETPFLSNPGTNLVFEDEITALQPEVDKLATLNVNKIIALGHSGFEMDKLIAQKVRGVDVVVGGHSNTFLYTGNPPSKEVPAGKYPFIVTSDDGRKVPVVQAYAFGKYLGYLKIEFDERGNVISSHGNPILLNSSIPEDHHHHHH

T5: CD73-ND-T183A (human, UniProt P21589 27-317)
T5 construct: Alanine mutant of CD73-ND
T5 sequence: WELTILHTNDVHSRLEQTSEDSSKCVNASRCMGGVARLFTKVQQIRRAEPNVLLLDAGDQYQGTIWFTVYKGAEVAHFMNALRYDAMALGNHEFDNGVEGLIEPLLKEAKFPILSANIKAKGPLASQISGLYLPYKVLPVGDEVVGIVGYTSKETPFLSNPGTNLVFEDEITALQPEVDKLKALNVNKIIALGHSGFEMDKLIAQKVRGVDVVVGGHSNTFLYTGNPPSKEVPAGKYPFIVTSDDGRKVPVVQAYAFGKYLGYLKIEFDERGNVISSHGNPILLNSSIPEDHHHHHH

T6: CD73-CD-his (human, UniProt P21589 337-549)
T6 construct: it fits residue S549 of P21589 (27+522)
T6 sequence: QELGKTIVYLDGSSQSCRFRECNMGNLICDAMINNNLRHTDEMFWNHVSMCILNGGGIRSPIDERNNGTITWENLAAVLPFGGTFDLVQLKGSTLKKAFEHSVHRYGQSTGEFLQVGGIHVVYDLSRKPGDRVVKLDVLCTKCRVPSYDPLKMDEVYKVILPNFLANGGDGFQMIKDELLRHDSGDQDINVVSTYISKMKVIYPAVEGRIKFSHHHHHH


Legend:
CD73-ND-E143A = biological target: T1, CD73-ND-E143A; test: ELISA, biotinylated antigen on streptavidin plate
Experimental: (§1) The ELISA plates were coated with SA protein diluted to 1.5 μg/mL in coating buffer (50 mM carbonate coating buffer, pH 9.6) and incubated overnight at 4° C. The supernatant was discarded, and the plates were washed three times with PBST. Then, 5% skimmed milk powder prepared with PBS was added for blocking and the plates were incubated for 2 h at 37° C. After washing the plates once with PBST, CD73-biotin protein (prepared by biotinylating CD73-His protein according to the EZ-Link NHS-Biotin Reagent instructions) was diluted to 0.5 μg/mL and added at 100 μL/well for incubation at room temperature for 1 h. The plates were washed three times with PBST, and the prepared murine-derived monoclonal antibodies against human CD73 were serially diluted with 1% BSA buffer prepared with PBST and added to the ELISA plates at 100 μl/well. The plates were incubated at 37° C. for 1 h. After washing the plates three times with PBST, HRP-labeled goat anti-mouse IgG secondary antibody was added and the plates were incubated for 30 min at 37° C. After washing the plates three times with PBST, the residual droplets were patted dry on absorbent paper as much as possible. Then, 100 μl of TMB color developing solution was added to each well, and the plates were incubated in the dark at room temperature for 5 min for color development. Subsequently, 50 μl of 2M H₂SO₄ stop solution was added to each well to terminate the substrate reaction. The OD values were read at 450 nm using a multimode microplate reader to analyze the binding ability of the tested antibodies to the target antigen human CD73-His.
(§2) Referring to the experimental method in Example 3, the affinity of 48A11-HuV33 for various mutant proteins of CD73-ND was determined. The SA protein was diluted to 1 μg/mL for coating the ELISA plates, and the biotinylated CD73 protein (CD73-biotin) was used at a concentration of 0.1 μg/mL.

CD73-ND-K180A = biological target: T2, CD73-ND-K180A; test: ELISA, biotinylated antigen on streptavidin plate
Experimental: as §1, §2

CD73-ND-L181A = biological target: T3, CD73-ND-L181A; test: ELISA, biotinylated antigen on streptavidin plate
Experimental: as §1, §2

CD73-ND-K182A = biological target: T4, CD73-ND-K182A; test: ELISA, biotinylated antigen on streptavidin plate
Experimental: as §1, §2

CD73-ND-T183A = biological target: T5, CD73-ND-T183A; test: ELISA, biotinylated antigen on streptavidin plate
Experimental: as §1, §2

CD73-CD-his = biological target: T6, CD73-CD-his; test: ELISA as in Example 3, antigen CD73-CD-his, antibody titrated, absorbance 450 nm

Binder | EC50 (CD73-ND-E143A) [pM] | EC50 (CD73-ND-K180A) [pM] | EC50 (CD73-ND-L181A) [pM] | EC50 (CD73-ND-K182A) [pM] | EC50 (CD73-ND-T183A) [pM] | binding result (CD73-CD-his)
48A11-HuV33 (antibody, human IgG4, V domains shown, Humanized) VH: QVQLVQSGAEVKKPGASVKVSCKASGYTFTSYWMHWVRQAPGQGLEWIGEINPSIGRTNYNEKFKSRVTLTRDTSTSTAYMELSSLRSEDTAVYYCARRVYGTMDYWGQGTLVTVSS VL: DIQMTQSPSSLSASVGDRVTITCKASQDINSYLSWFQQKPGKSPKLLIYRANIWVDGVPSRFSGSGSGQDYTFTISSLQPEDIATYYCLQYDELYTFGQGTKVEIK | 167 | 321 | 226 | 121 | 159 | –
56B10-HuV31 (antibody, human IgG4, V domains shown, Humanized) VH: QVQLQQSGAEVKKPGASVKVSCKASGYTFTRYYIYWVRQRPGQGLEWIGWIYPGNFNTKYNEKFKGRATLTADTSASTAYMELSSLTSEDTAVYYCARDVYDYAGFAYWGQGTLVTVSS VL: DIQLTQSPSFLSASVGDRVTITCKASQGVATAVAWYQQKPGQSPKLLIYWASTRHTGVPDRFSGSGSGTEFTLTISSLQPEDFATYYCQQYSSYPWTFGQGTKVEIK | – | – | – | – | – | no binding (tested: 10 nM)
